The subject of one series is RAGE. To be noted: free amino acid, not embedded in a peptide; ref Xie et al., 2008; cited from earlier work.
A further series deals with V domain of RAGE (Homo sapiens, UniProt Q15109). Put plainly: Tryptophan fluorescence titration, wild type V domain. To be noted: single site binding isotherm, 25 °C, pH 6.5, 100 mM NaCl.
The series “NMR gradient diffusion” deals with the molecule itself. The experiment in a line: NMR gradient diffusion.
A further series has as its target R98A V domain of RAGE (human, UniProt Q15109 24-125, R98A). The experiment in a line: other fluorescence titration.
A further series deals with K52A V domain of RAGE (human, UniProt Q15109 24-125, K52A). Put plainly: other fluorescence titration.
The target in series [1] is K52A, R98A V domain of RAGE (human, UniProt Q15109 24-125, K52A | R98A). Put plainly: other fluorescence titration.
The target of series [2] is V domain of RAGE (wild type) (human, UniProt Q15109 24-125). The experiment in a line: other fluorescence titration.

*1 amine or outer side, *2 acyl side, *3 side chain or, on linkers, in order; H or OH if unused. Where no end group is shown, it is not given here. [ ]: non-standard residue; d: D form. CEL = Nε-carboxy-ethyl-lysine, CC(NCCCC[C@H](N[*:1])C(=O)[*:2])C(=O)[*:3]; CML = Nε-carboxy-methyl-lysine, O=C([C@H](CCCCNCC(=O)[*:3])N[*:1])[*:2]

Sequence of K52A V domain of RAGE (Q15109 24-125 K52A): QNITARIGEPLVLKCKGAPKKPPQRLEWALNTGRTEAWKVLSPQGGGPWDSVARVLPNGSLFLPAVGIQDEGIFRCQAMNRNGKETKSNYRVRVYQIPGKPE
Sequence of K52A, R98A V domain of RAGE (Q15109 24-125 K52A/R98A): as the sequence (Q15109 24-125 K52A) above, with R75A counted along it
Sequence of R98A V domain of RAGE (Q15109 24-125 R98A): as the sequence (Q15109 24-125 K52A) above, with A29K, R75A counted along it

For the molecule `CC(NCCCC[C@H](N)C(=O)O)C(=O)O` (stereo partly shown) [CEL, Nε-carboxy-ethyl-lysine], the “binding to RAGE” value in the series with RAGE is given as “do not bind”. Turning to `N[C@@H](CCCCNCC(=O)O)C(=O)O` [CML, Nε-carboxy-methyl-lysine], in the series on RAGE, the “binding to RAGE” value is given as “do not bind”. As to `CC(NCCCC[C@H](NC(=O)[C@H](Cc1ccccc1)NC(=O)[C@H](CCC(=O)O)NC(=O)[C@@H](N)CC(=O)O)C(=O)N[C@@H](C)C(=O)N[C@@H](CC(=O)O)C(=O)N[C@@H](CCC(=O)O)C(=O)O)C(=O)O` (stereo partly shown) [DEF(CEL)ADE], the Kd at V domain of RAGE was found to be 104 ± 5 µM. Same read-out and setting: as for `CC(C)C[C@H](NC(=O)[C@H](CC(=O)O)NC(=O)[C@H](CCCCNC(C)C(=O)O)NC(=O)[C@@H](N)Cc1ccccc1)C(=O)NCC(=O)N[C@@H](CCC(=O)O)C(=O)N[C@@H](CCC(=O)O)C(=O)O` (stereo partly shown) [F(CEL)DLGEE], the figure is 93 ± 6 µM.

B1: VC1 domain of RAGE (wild type) (domain or fragment, human, UniProt Q15109 23-243, looked up)
chain: AQNITARIGEPLVLKCKGAPKKPPQRLEWKLNTGRTEAWKVLSPQGGGPWDSVARVLPNGSLFLPAVGIQDEGIFRCQAMNRNGKETKSNYRVRVYQIPGKPEIVDSASELTAGVPNKVGTCVSEGSYPAGTLSWHLDGKPLVPNEKGVSVKEQTRRHPETGLFTLQSELMVTPARGGDPRPTFSCSFSPGLPRHRALRTAPIQPRVWEPVPLEEVQLVVE
B1: in “NMR gradient diffusion”, the binding result was “binds”.

Consider DEF[CEL]ADE [DEF(CEL)ADE], for which the values for the Kd (in the series with R98A V domain of RAGE; with K52A V domain of RAGE; in series [1]) were 685 ± 26 µM, 560 ± 32 µM and 912 ± 42 µM, respectively.

In series [2], F[CML]DLGEE [F(CML)DLGEE] showed a dissociation constant (Kd) of 87 ± 5 µM. The molecule DEF[CML]ADE [DEF(CML)ADE] returned a dissociation constant (Kd) in series [2] of 97 ± 3 µM.

The record behind these values is PMC3150472 (Structure (London, England : 1993), 2011).
